This note sets out measurements from patent US20200048648.

Common to all, as to test: cell_activity
In data set [1] the test system is MsCOMT_T01.1 TALE nuclease right monomer (synthetic construct). The following applies: value for nuclease pair; alfalfa protoplasts, 28 C, 2 days.
Data set [2] has as its system MsCOMT_T02.1 TALE nuclease right monomer (synthetic construct). Particulars: value for nuclease pair; alfalfa protoplasts, 28 C, 2 days.
Data set [3] has as its system MsCOMT_T03.1 TALE nuclease right monomer (synthetic construct). The following applies: value for nuclease pair; alfalfa protoplasts, 28 C, 2 days.
Data set [4] has as its system MsCOMT_T02.1 TALE nuclease left monomer (synthetic construct). Particulars: value for nuclease pair; alfalfa protoplasts, 28 C, 2 days.
The test system of data set [5] is MsCOMT_T01.1 TALE nuclease left monomer (synthetic construct). The following applies: value for nuclease pair; alfalfa protoplasts, 28 C, 2 days; left site boundary inferred from 15 bp spacer.
Data set [6] concerns MsCOMT_T03.1 TALE nuclease left monomer (synthetic construct). Particulars: value for nuclease pair; alfalfa protoplasts, 28 C, 2 days.

“ACATATCAGATGAAGAA (double strand) [MsCOMT_T01.1 right half-site (top strand)]” returned an activity (% mutation frequency) in data set [1] of 12.6.
As for “CTGGACCTGGTGCTCAA (double strand) [MsCOMT_T02.1 right half-site (top strand)]”, the activity (% mutation frequency) in data set [2] is 15.9.
On to “GCACCAGTTATGTTGGA (double strand) [MsCOMT_T03.1 right half-site (top strand)]”, for which the activity (% mutation frequency) in data set [3] amounted to 14.1.
“TGAACTTGATCTCTTAG (double strand) [MsCOMT_T02.1 left half-site]” showed an activity (% mutation frequency) in data set [4] of 15.9.
For the sequence “TTCAACAGGTGAAACTC (double strand) [MsCOMT_T01.1 left half-site]”, the activity (% mutation frequency) in data set [5] was 12.6.
“TTGCTTCTCAGCTACCA (double strand) [MsCOMT_T03.1 left half-site]” had an activity (% mutation frequency) in data set [6] of 14.1.
